This data set is described as follows: Properties of the purified amino acid dehydrogenase (specific activity, action temperature and pH), NADH decline at 340 nm. Format: biochemical, Rhodococcus qingshengii strain KNK2108. The note with it: 30° C., pH 9.0, phenylpyruvic acid substrate; 1 unit = 1 μmol NADH consumed in 1 minute. As to the method:
In the embodiments, the amino acid dehydrogenase activity of the polypeptide can be measured, for example, based on the rate of decline in the absorbance at a wavelength of 340 nm when 1.2 mL of 0.5 M NH3/NH4Cl buffer (pH 9.0), 0.2 mL of 0.1 M sodium carbonate buffer (pH 9.0) containing 3 mM NADH coenzyme, and 0.1 mL of an appropriately diluted enzyme solution are added to 1.5 mL of 0.1 M sodium carbonate buffer (pH 9.0) containing 10 mM phenylpyruvic acid as substrate and a reaction is run for 1 minute at 30° C. In the embodiments, the amino acid dehydrogenase activity was measured using this method unless indicated otherwise.
The activity of the amino acid dehydrogenase was measured based on the rate of decline in the absorbance at a wavelength of 340 nm when 1.2 mL of 0.5 M NH3/NH4Cl buffer (pH 9.0), 0.2 mL of 0.1 M sodium carbonate buffer (pH 9.0) that contained 3 mM NADH coenzyme, and 0.1 mL of the appropriately diluted enzyme solution were added to 1.5 mL of 0.1 M sodium carbonate buffer (pH 9.0) that contained 10 mM phenylpyruvic acid substrate and a reaction was carried out for 1 minute at 30° C. 1 unit is defined here as the quantity of enzyme that consumed 1 μmol NADH in 1 minute. The protein was quantified by the Bradford method using BSA as the reference protein.
The action temperature range and the optimal temperature were examined. […]

B1: purified amino acid dehydrogenase: amino acid dehydrogenase purified from Rhodococcus qingshengii strain KNK2108 (Example 1), SEQ ID NO:1, classified as phenylalanine dehydrogenase (protein, listed as Rhodococcus qingshengii)
chain: MSIDDELRWDGELTVTRHDRETGTTFVIRIDSTRLGPASGGTRAAHYPSIGHALADAGKLAGAMTLKMAVSDLPMGGGKSVIALPAPRNQIDAATWSRILGIHAENIDKLEGNYWTGPDVNTNSSDMDQLSRTTRYVFGRSVDKGGAGSSAHATALGVFEAMKATARRRGLGTLDGRTVLVQGLGAVGGDVVRLAAQAGARLLVADTDPQRLEAASLAGHTVVPAGEVLRTPCDLFAPCAMGGIIDFAAAASIPTLAVAGAANNILTDAAAGEVLRDRGVLCAPDFVANAGGAFHLVGREVLGWNEDYVVERTRGIGRTLDEVYSLSEERGITTEAAALMLARARLSPASTAAAATSAAPAAAAASPA
In turn, B1 yielded a specific activity of 204 units/mg protein.

Source of the values: patent US9267116B2, “Amino acid dehydrogenase, and process for producing L-amino acid, 2-oxo acid or D-amino acid” (KANEKA CORPORATION, priority 2008, dated 2016).
